Source: article PMC2628979 (Molecular microbiology, 2007)
Substitutions are numbered along the chain they refer to. Numbers in names are those of the source. Where two headings read alike, the source gives them in different places.

B1: N-CEA L95C (domain or fragment)
chain: AKLTIESTPFNVAEGKEVLLLVHNLPQHLFGYSWYKGERVDGNRQIIGYVIGTQQATPGPAYSGREIIYPNASLLIQNIIQNDTGFYTLHVIKSDCVNEEATGQFRVYPEL
B2: N-CEA L74A (domain or fragment)
chain: B1 chain with L75A, C96L
B3: N-CEA V39C mutant (domain or fragment)
chain: B1 chain with V40C, C96L
B4: N-CEA H89Q (domain or fragment)
chain: B1 chain with H90Q, C96L
B5: N-CEA Q76A (domain or fragment)
chain: B1 chain with Q77A, C96L
B6: N-terminal domain of carcinoembryonic antigen (N-CEA) (domain or fragment)
chain: B1 chain with C96L
B7: N-CEA F29I (domain or fragment)
chain: B1 chain with F30I, C96L
B8: N-CEA D40A (domain or fragment)
chain: B1 chain with D41A, C96L
B9: N-CEA F29R (domain or fragment)
chain: B1 chain with F30R, C96L
B10: N-CEA L95A (domain or fragment)
chain: B1 chain with C96A
B11: N-terminal domain of CEACAM6 (N-CEACAM6) (domain or fragment)
chain: KLTIESTPFNVAEGKEVLLLAHNLPQNRIGYSWYKGERVDGNSLIVGYVIGTQQATPGPAYSGRETIYPNASLLIQNVTQNDTGFYTLQVIKSDLVNEEATGQFHVYP
B12: N-CEA I91A (domain or fragment)
chain: B1 chain with I92A, C96L
B13: N-CEA S32N (domain or fragment)
chain: B1 chain with S33N, C96L
B14: N-CEA Q44R (domain or fragment)
chain: B1 chain with Q45R, C96L
B15: N-terminal domain of CEACAM1 (N-CEACAM1) (domain or fragment)
chain: QLTTESMPFNVAEGKEVLLLVHNLPQQLFGYSWYKGERVDGNRQIVGYAIGTQQATPGPANSGRETIYPNASLLIQNVTQNDTGFYTLQVIKSDLVNEEATGQFHVYP

Columns and labels:
[1] = biological target: TMR labeled H27C N-CEA mutant (human) (UniProt P06731); test: absorbance of tetramethylrhodamine dimers
SEC = biological target: the molecule itself; test: SEC
cross-linking = biological target: the molecule itself; test: cross-linking
AUC = biological target: the molecule itself; test: AUC
[2] = biological target: B6; test: SPR
[3] = biological target: B6; test: SPR; remark: listed apart in the source
N-CEA Q44R = biological target: B14; test: SPR
N-CEA S32N = biological target: B13; test: SPR
N-CEA F29R = biological target: B9; test: SPR
[4] = biological target: B6; test: SPR; remark: listed apart in the source
N-CEA V39A = biological target: T1, N-CEA V39A (human, UniProt P06731 34-144, V39A); test: SPR
T1 sequence: B1 chain with V40A, C96L

DraE monomer (DraE-dsc) (natural protein)
518/555 absorbance ratio of TMR-labeled N-CEA after dilution with DraE [1]: 0.48

B1
stoichiometry N (SEC): 2

B2
stoichiometry N (SEC): 2

B3
stoichiometry N (cross-linking): 2

B4
stoichiometry N (SEC): 2

B5
stoichiometry N (SEC): 2

B6
stoichiometry N (SEC): 2 | Kd (AUC): 0.8 µM

B7
stoichiometry N (SEC): 2

B8
stoichiometry N (SEC): 2

B9
Kd [2]: ~200 µM

B10
stoichiometry N (SEC): 2

B11
Kd [3]: 65 ± 7 µM | Kd (N-CEA Q44R): 28 ± 3 µM | Kd (N-CEA S32N): ~200 µM | Kd (N-CEA F29R): ~200 µM | Kd [4]: ~100 µM

B12
Kd [2]: 55 ± 6 µM

B13
Kd [2]: ~200 µM

B14
Kd [2]: ~130 µM

B15
Kd (N-CEA Q44R): 72 ± 9 µM | Kd (N-CEA S32N): ~100 µM | Kd (N-CEA V39A): ~100 µM | Kd (N-CEA F29R): ~100 µM
